US20220048967A1 (published 2022)
Numbered stars: 1 amine (or outer) side, 2 acyl side, 3 side chain; on linkers, the order of the positions; unused ones are H or OH. Square brackets hold non-standard residues; d marks the D form. Side chains are listed from the residue outwards. Ends that are not written are not given here. * marks the point of attachment. C20 diacid = O=C(O)CCCCCCCCCCCCCCCCCCC(=O)*; γGlu = O=C(O)[C@H](CCC(=O)[*:2])N[*:1]; AEEA = NCCOCCOCC(=O)O; Aib = CC(C)(N)C(=O)O

Assays:
[1] = biological target: T1, human GIP receptor (human, UniProt P48546 22-466); assay: cell-based or functional assay
T1 sequence (looked up): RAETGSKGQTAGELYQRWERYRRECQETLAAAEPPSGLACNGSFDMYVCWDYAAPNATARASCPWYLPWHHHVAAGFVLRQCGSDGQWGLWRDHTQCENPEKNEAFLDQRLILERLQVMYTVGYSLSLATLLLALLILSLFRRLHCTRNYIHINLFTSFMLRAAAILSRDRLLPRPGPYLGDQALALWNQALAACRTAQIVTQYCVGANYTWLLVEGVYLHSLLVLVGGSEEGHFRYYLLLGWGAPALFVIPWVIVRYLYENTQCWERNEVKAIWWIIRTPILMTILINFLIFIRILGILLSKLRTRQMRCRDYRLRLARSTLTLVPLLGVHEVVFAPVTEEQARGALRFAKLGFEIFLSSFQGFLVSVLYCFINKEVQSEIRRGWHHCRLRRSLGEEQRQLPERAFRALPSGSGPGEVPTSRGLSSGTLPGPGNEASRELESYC

[2] = biological target: human GLP-1 receptor (human, UniProt P43220 24-463); assay: cell-based or functional assay

B1: Example 26 (peptide)
peptide: Y[Aib]EGTFTSDYSIK([AEEA-AEEA-γGlu-C20 diacid])LDKIAQ[Aib]AFIEYLIEGGPSSGAPPPS-NH2
modifications: N-terminus assumed
SMILES: CC[C@H](C)[C@H](NC(=O)[C@H](CCCCN)NC(=O)[C@H](CC(=O)O)NC(=O)[C@H](CC(C)C)NC(=O)[C@H](CCCCNC(=O)COCCOCCNC(=O)COCCOCCNC(=O)CC[C@H](NC(=O)CCCCCCCCCCCCCCCCCCC(=O)O)C(=O)O)NC(=O)[C@@H](NC(=O)[C@H](CO)NC(=O)[C@H](Cc1ccc(O)cc1)NC(=O)[C@H](CC(=O)O)NC(=O)[C@H](CO)NC(=O)[C@@H](NC(=O)[C@H](Cc1ccccc1)NC(=O)[C@@H](NC(=O)CNC(=O)[C@H](CCC(=O)O)NC(=O)C(C)(C)NC(=O)[C@@H](N)Cc1ccc(O)cc1)[C@@H](C)O)[C@@H](C)O)[C@@H](C)CC)C(=O)N[C@@H](C)C(=O)N[C@@H](CCC(N)=O)C(=O)NC(C)(C)C(=O)N[C@@H](C)C(=O)N[C@@H](Cc1ccccc1)C(=O)N[C@H](C(=O)N[C@@H](CCC(=O)O)C(=O)N[C@@H](Cc1ccc(O)cc1)C(=O)N[C@@H](CC(C)C)C(=O)N[C@H](C(=O)N[C@@H](CCC(=O)O)C(=O)NCC(=O)NCC(=O)N1CCC[C@H]1C(=O)N[C@@H](CO)C(=O)N[C@@H](CO)C(=O)NCC(=O)N[C@@H](C)C(=O)N1CCC[C@H]1C(=O)N1CCC[C@H]1C(=O)N1CCC[C@H]1C(=O)N[C@@H](CO)C(N)=O)[C@@H](C)CC)[C@@H](C)CC
[1]
  hGIPR cAMP EC50 ratio: 0.585
  hGIPR cAMP Rel EC50: 0.251 nM
[2]
  hGLP1R cAMP EC50 ratio: 0.238
  hGLP1R cAMP Rel EC50: 0.293 nM

B2: Example 25 (peptide)
peptide: Y[Aib]EGTFTSDYSK([AEEA-AEEA-γGlu-C20 diacid])LLDKIAQ[Aib]AFIEYLIEGGPSSGAPPPS-NH2
modifications: N-terminus assumed
SMILES: CC[C@H](C)[C@H](NC(=O)[C@H](CCCCN)NC(=O)[C@H](CC(=O)O)NC(=O)[C@H](CC(C)C)NC(=O)[C@H](CC(C)C)NC(=O)[C@H](CCCCNC(=O)COCCOCCNC(=O)COCCOCCNC(=O)CC[C@H](NC(=O)CCCCCCCCCCCCCCCCCCC(=O)O)C(=O)O)NC(=O)[C@H](CO)NC(=O)[C@H](Cc1ccc(O)cc1)NC(=O)[C@H](CC(=O)O)NC(=O)[C@H](CO)NC(=O)[C@@H](NC(=O)[C@H](Cc1ccccc1)NC(=O)[C@@H](NC(=O)CNC(=O)[C@H](CCC(=O)O)NC(=O)C(C)(C)NC(=O)[C@@H](N)Cc1ccc(O)cc1)[C@@H](C)O)[C@@H](C)O)C(=O)N[C@@H](C)C(=O)N[C@@H](CCC(N)=O)C(=O)NC(C)(C)C(=O)N[C@@H](C)C(=O)N[C@@H](Cc1ccccc1)C(=O)N[C@H](C(=O)N[C@@H](CCC(=O)O)C(=O)N[C@@H](Cc1ccc(O)cc1)C(=O)N[C@@H](CC(C)C)C(=O)N[C@H](C(=O)N[C@@H](CCC(=O)O)C(=O)NCC(=O)NCC(=O)N1CCC[C@H]1C(=O)N[C@@H](CO)C(=O)N[C@@H](CO)C(=O)NCC(=O)N[C@@H](C)C(=O)N1CCC[C@H]1C(=O)N1CCC[C@H]1C(=O)N1CCC[C@H]1C(=O)N[C@@H](CO)C(N)=O)[C@@H](C)CC)[C@@H](C)CC
[1]
  hGIPR cAMP EC50 ratio: 0.636
  hGIPR cAMP Rel EC50: 0.23 nM
[2]
  hGLP1R cAMP EC50 ratio: 0.197
  hGLP1R cAMP Rel EC50: 0.356 nM

B3: Example 24 (peptide)
peptide: Y[Aib]EGTFTSDYK([AEEA-AEEA-γGlu-C20 diacid])ILLDKIAQ[Aib]AFIEYLIEGGPSSGAPPPS-NH2
modifications: N-terminus assumed
SMILES: CC[C@H](C)[C@H](NC(=O)[C@H](CCCCN)NC(=O)[C@H](CC(=O)O)NC(=O)[C@H](CC(C)C)NC(=O)[C@H](CC(C)C)NC(=O)[C@@H](NC(=O)[C@H](CCCCNC(=O)COCCOCCNC(=O)COCCOCCNC(=O)CC[C@H](NC(=O)CCCCCCCCCCCCCCCCCCC(=O)O)C(=O)O)NC(=O)[C@H](Cc1ccc(O)cc1)NC(=O)[C@H](CC(=O)O)NC(=O)[C@H](CO)NC(=O)[C@@H](NC(=O)[C@H](Cc1ccccc1)NC(=O)[C@@H](NC(=O)CNC(=O)[C@H](CCC(=O)O)NC(=O)C(C)(C)NC(=O)[C@@H](N)Cc1ccc(O)cc1)[C@@H](C)O)[C@@H](C)O)[C@@H](C)CC)C(=O)N[C@@H](C)C(=O)N[C@@H](CCC(N)=O)C(=O)NC(C)(C)C(=O)N[C@@H](C)C(=O)N[C@@H](Cc1ccccc1)C(=O)N[C@H](C(=O)N[C@@H](CCC(=O)O)C(=O)N[C@@H](Cc1ccc(O)cc1)C(=O)N[C@@H](CC(C)C)C(=O)N[C@H](C(=O)N[C@@H](CCC(=O)O)C(=O)NCC(=O)NCC(=O)N1CCC[C@H]1C(=O)N[C@@H](CO)C(=O)N[C@@H](CO)C(=O)NCC(=O)N[C@@H](C)C(=O)N1CCC[C@H]1C(=O)N1CCC[C@H]1C(=O)N1CCC[C@H]1C(=O)N[C@@H](CO)C(N)=O)[C@@H](C)CC)[C@@H](C)CC
[1]
  hGIPR cAMP EC50 ratio: 0.228
  hGIPR cAMP Rel EC50: 0.762 nM
[2]
  hGLP1R cAMP EC50 ratio: 0.00416
  hGLP1R cAMP Rel EC50: 13 nM

B4: Example 27 (peptide)
peptide: Y[Aib]EGTFTSDYSILK([AEEA-AEEA-γGlu-C20 diacid])DKIAQ[Aib]AFIEYLIEGGPSSGAPPPS-NH2
modifications: N-terminus assumed
SMILES: CC[C@H](C)[C@H](NC(=O)[C@H](CCCCN)NC(=O)[C@H](CC(=O)O)NC(=O)[C@H](CCCCNC(=O)COCCOCCNC(=O)COCCOCCNC(=O)CC[C@H](NC(=O)CCCCCCCCCCCCCCCCCCC(=O)O)C(=O)O)NC(=O)[C@H](CC(C)C)NC(=O)[C@@H](NC(=O)[C@H](CO)NC(=O)[C@H](Cc1ccc(O)cc1)NC(=O)[C@H](CC(=O)O)NC(=O)[C@H](CO)NC(=O)[C@@H](NC(=O)[C@H](Cc1ccccc1)NC(=O)[C@@H](NC(=O)CNC(=O)[C@H](CCC(=O)O)NC(=O)C(C)(C)NC(=O)[C@@H](N)Cc1ccc(O)cc1)[C@@H](C)O)[C@@H](C)O)[C@@H](C)CC)C(=O)N[C@@H](C)C(=O)N[C@@H](CCC(N)=O)C(=O)NC(C)(C)C(=O)N[C@@H](C)C(=O)N[C@@H](Cc1ccccc1)C(=O)N[C@H](C(=O)N[C@@H](CCC(=O)O)C(=O)N[C@@H](Cc1ccc(O)cc1)C(=O)N[C@@H](CC(C)C)C(=O)N[C@H](C(=O)N[C@@H](CCC(=O)O)C(=O)NCC(=O)NCC(=O)N1CCC[C@H]1C(=O)N[C@@H](CO)C(=O)N[C@@H](CO)C(=O)NCC(=O)N[C@@H](C)C(=O)N1CCC[C@H]1C(=O)N1CCC[C@H]1C(=O)N1CCC[C@H]1C(=O)N[C@@H](CO)C(N)=O)[C@@H](C)CC)[C@@H](C)CC
[1]
  hGIPR cAMP EC50 ratio: 1.9
  hGIPR cAMP Rel EC50: 0.0789 nM
[2]
  hGLP1R cAMP EC50 ratio: 0.123
  hGLP1R cAMP Rel EC50: 0.557 nM

B5: Example 28 (peptide)
peptide: Y[Aib]EGTFTSDYSILLK([AEEA-AEEA-γGlu-C20 diacid])KIAQ[Aib]AFIEYLIEGGPSSGAPPPS-NH2
modifications: N-terminus assumed
SMILES: CC[C@H](C)[C@H](NC(=O)[C@H](CCCCN)NC(=O)[C@H](CCCCNC(=O)COCCOCCNC(=O)COCCOCCNC(=O)CC[C@H](NC(=O)CCCCCCCCCCCCCCCCCCC(=O)O)C(=O)O)NC(=O)[C@H](CC(C)C)NC(=O)[C@H](CC(C)C)NC(=O)[C@@H](NC(=O)[C@H](CO)NC(=O)[C@H](Cc1ccc(O)cc1)NC(=O)[C@H](CC(=O)O)NC(=O)[C@H](CO)NC(=O)[C@@H](NC(=O)[C@H](Cc1ccccc1)NC(=O)[C@@H](NC(=O)CNC(=O)[C@H](CCC(=O)O)NC(=O)C(C)(C)NC(=O)[C@@H](N)Cc1ccc(O)cc1)[C@@H](C)O)[C@@H](C)O)[C@@H](C)CC)C(=O)N[C@@H](C)C(=O)N[C@@H](CCC(N)=O)C(=O)NC(C)(C)C(=O)N[C@@H](C)C(=O)N[C@@H](Cc1ccccc1)C(=O)N[C@H](C(=O)N[C@@H](CCC(=O)O)C(=O)N[C@@H](Cc1ccc(O)cc1)C(=O)N[C@@H](CC(C)C)C(=O)N[C@H](C(=O)N[C@@H](CCC(=O)O)C(=O)NCC(=O)NCC(=O)N1CCC[C@H]1C(=O)N[C@@H](CO)C(=O)N[C@@H](CO)C(=O)NCC(=O)N[C@@H](C)C(=O)N1CCC[C@H]1C(=O)N1CCC[C@H]1C(=O)N1CCC[C@H]1C(=O)N[C@@H](CO)C(N)=O)[C@@H](C)CC)[C@@H](C)CC
[1]
  hGIPR cAMP EC50 ratio: 0.106
  hGIPR cAMP Rel EC50: 1.66 nM
[2]
  hGLP1R cAMP EC50 ratio: 0.00166
  hGLP1R cAMP Rel EC50: 32.7 nM

B6: Example 23 (peptide)
peptide: Y[Aib]EGTFTSDK([AEEA-AEEA-γGlu-C20 diacid])SILLDKIAQ[Aib]AFIEYLIEGGPSSGAPPPS-NH2
modifications: N-terminus assumed
SMILES: CC[C@H](C)[C@H](NC(=O)[C@H](CCCCN)NC(=O)[C@H](CC(=O)O)NC(=O)[C@H](CC(C)C)NC(=O)[C@H](CC(C)C)NC(=O)[C@@H](NC(=O)[C@H](CO)NC(=O)[C@H](CCCCNC(=O)COCCOCCNC(=O)COCCOCCNC(=O)CC[C@H](NC(=O)CCCCCCCCCCCCCCCCCCC(=O)O)C(=O)O)NC(=O)[C@H](CC(=O)O)NC(=O)[C@H](CO)NC(=O)[C@@H](NC(=O)[C@H](Cc1ccccc1)NC(=O)[C@@H](NC(=O)CNC(=O)[C@H](CCC(=O)O)NC(=O)C(C)(C)NC(=O)[C@@H](N)Cc1ccc(O)cc1)[C@@H](C)O)[C@@H](C)O)[C@@H](C)CC)C(=O)N[C@@H](C)C(=O)N[C@@H](CCC(N)=O)C(=O)NC(C)(C)C(=O)N[C@@H](C)C(=O)N[C@@H](Cc1ccccc1)C(=O)N[C@H](C(=O)N[C@@H](CCC(=O)O)C(=O)N[C@@H](Cc1ccc(O)cc1)C(=O)N[C@@H](CC(C)C)C(=O)N[C@H](C(=O)N[C@@H](CCC(=O)O)C(=O)NCC(=O)NCC(=O)N1CCC[C@H]1C(=O)N[C@@H](CO)C(=O)N[C@@H](CO)C(=O)NCC(=O)N[C@@H](C)C(=O)N1CCC[C@H]1C(=O)N1CCC[C@H]1C(=O)N1CCC[C@H]1C(=O)N[C@@H](CO)C(N)=O)[C@@H](C)CC)[C@@H](C)CC
[1]
  hGIPR cAMP EC50 ratio: 0.754
  hGIPR cAMP Rel EC50: 0.204 nM
[2]
  hGLP1R cAMP EC50 ratio: 0.342
  hGLP1R cAMP Rel EC50: 0.19 nM
